Laboratory results from patent publication US9097721B2, “Compositions comprising engineered phosphothreonine affinity reagents, methods of making, and methods of use” (The Board of Trustees of the University of Illinois, priority 2012, dated 2015).

Columns and labels:
[1] = target: T1, pT peptide (Rad 9-pT: SLEVpTEADATFYAKK) (Saccharomyces cerevisiae, UniProt P14737); conditions: Durocher et al. (2000); read-out: previously reported Kd by ITC; cited from earlier work
T1 construct: host or cells: chemical synthesis

[2] = Fluorescence-based thermal shift (FTS) assay, melting temperature; format: physicochemical; conditions: mid-point of melting curve
Experimental: The FTS assay was performed on a MxPro-Mx3005P instrument (Stratagene) following the protocol described by Giuliani et al (Giuliani et al. (2008) Biochemistry 47, 13974-84). It is a real-time assay using the SYBR® Green experiment setting with dissociation curve. The default FRROX filter set was used with an excitation wavelength of 492 nm and emission wavelength of 610 nm. FHA1 domains diluted with PBS to 2× final concentration (i.e. 2 μM and 8 μM) were mixed with 10×SYPRO® Orange protein gel stain (Invitrogen; 5000× concentration in DMSO) to give a final dye concentration of 10×. Then, to the protein wells only, 10 μL of the dye+protein mixture was added along with 10 μL of 1×PBS buffer. In other wells, 10 μL of either the pT peptide or its non-phosphorylated form (diluted to 2× final concentration with PBS, i.e. 100 μM and 500 μM) was added to 10 μL of dye+protein mixture. The final reaction volume was 20 μL with final concentrations of 1 μM or 4 μM of FHA1 domains, 50 μM or 250 μM of pT and non-phosphorylated peptides and 5× final concentration of the SYPRO® Orange. The assay was performed in duplicate in 96 well white PCR plates (BIO-Rad) covered with optically clear Microseal® ‘B’ Film (Bio-Rad) and heated from 25° C. to 95° C. and the melting curve was obtained with fluorescence (R) values plotted on the Y-axis and increasing temperature (° C.) on the X-axis. The mid-point of the curve gives the melting temperature (Tm), which shifts to a higher temperature in the presence of the pT peptide.
To evaluate the thermal stability of the D2 variant, phage particles displaying the D2 variant were heated at various temperatures (30° C., 37° C., 50° C., 60° C., 70° C., 80° C., and 95° C.) prior to incubation with the cognate pT peptide (Rad9-pT) and the non-phosphorylated form of the same peptide (Rad9-T). […] (FIG. 8). The D2 variant (purified six-his tagged protein) was mixed with SYPRO orange dye with or without the Rad9-pT-containing peptide and heated from 25° C. to 95° C. in a real-time PCR experiment known as the Fluorescence-based thermal shift (FTS) assay^36. In this assay, initially, the fluorescence of SYPRO orange dye is quenched in the aqueous environment of a folded protein, but as the protein starts to unfold upon heating, the dye interacts with the hydrophobic core of the protein and its fluorescence increases. Therefore, an increase in fluorescence of the dye is directly proportional to protein unfolding, until a temperature (referred to as Tm here) is reached at which the dye fluorescence decreases due to aggregation and precipitation of the protein. The melting temperature (Tm) of the D2 variant was determined by fluorescence-based thermal shift (FTS) assay to be approximately 5° C. lower than the Tm of the WT FHA1 domain. To improve the thermal stability of the D2 variant, affinity selection was carried out by heating the phage library displaying D2 variants at 50° C. prior to incubation with the pT peptide ligand to favor the isolation of variants that remained folded and functional above 50° C.
The Tm values of FHA1 variants were determined by FTS assay (Giuliani et al. (2008) Biochemistry 47, 13974-84). A representative Tm curve for the G2 variant at 1 μM concentration is shown (solid squares), alone and in the presence of the pT peptide (FIG. 11). […] The Tm values of the thermally stable variants (along with WT and D2 variant) at 1 μM and 4 μM concentration, along with the Tm shift in the presence of two different concentrations (50 μM and 250 μM) of the pT peptide, are listed in Table S3.
The Tm (temperature at which 50% of the protein is unfolded) of the protein domain variants was determined by a fluorescence-based thermal shift assay (Giuliani et al. (2008) Biochemistry 47, 13974-84). The proteins were mixed with SYPRO orange dye, and heated from 25° C. to 95° C. on a real-time thermocycler. […]

B1: WT: N-terminal FHA1 domain of S. cerevisiae Rad53 protein kinase, residues 1-170 (SEQ ID NO:7) (protein, listed as Saccharomyces cerevisiae)
chain: MENITQPTQQSTQATQRFLIEKFSQEQIGENIVCRVICTTGQIPIRDLSADISQVLKEKRSIKKVWTFGRNPACDYHLGNISRLSNKHFQILLGEDGNLLLNDISTNGTWLNGQKVEKNSNQLLSQGDEITVGVGVESDILSLVIFINDKFKQCLEQNKVDRIRSNLKNT
Kd [1]: 530 nM
Tm (° C.) ([2]; protein concentration 1 μM): 66.7 °C
Tm (° C.) ([2]; protein concentration 4 μM): 66.4 °C
